Experimental data published in paper PMC2783259.
Where two headings read alike, the source gives them in different places.

What was measured:
[1] = target: human FcγRIIA (CD32), R131 allotype, on CV-1 cells (human); test: inhibition of rosette formation
[2] = target: human FcγRIA (CD64) co-expressed with the common γ chain on CV-1 cells (human) (UniProt P12314); test: inhibition of rosette formation
[3] = target: human FcγRIIA (CD32), H131 allotype, on CV-1 cells (human) (UniProt P12318); test: inhibition of rosette formation
[4] = target: human FcγRIA (CD64) co-expressed with the common γ chain on CV-1 cells (human) (UniProt P12314); test: inhibition of rosette formation; remark: listed apart in the source
[5] = target: human FcγRIIA (CD32), H131 allotype, on CV-1 cells (human) (UniProt P12318); test: inhibition of rosette formation; remark: listed apart in the source
[6] = target: The FcγRIA and FcγRIIA transfectants; test: rosette formation

Row | Substance | percent inhibition of rosette formation [1] | percent inhibition of rosette formation [2] | further results
1 | human IgG1 myeloma protein, heat-aggregated (antibody) | > 90% | > 90% | 
2 | human IgG2 myeloma protein, heat-aggregated (antibody) |  |  | percent inhibition of rosette formation [3]: 60%; percent inhibition of rosette formation [4]: 20%; percent inhibition of rosette formation [5]: 65%
3 | human IgG3 myeloma protein, heat-aggregated (antibody) | > 90% | > 90% | 
4 | rabbit IgG on opsonized sheep red blood cells (SRBC) (antibody) |  |  | percent rosette formation [6]: 82 to 97%
